# Laboratory results: article PMC6317261, “Functional dissection of the developmentally restricted BEN domain chromatin boundary factor Insensitive” (Epigenetics & Chromatin, 2019)
# T1: HS:C-BEN (UniProt Q8SYK5 210-376)
# T1 sequence: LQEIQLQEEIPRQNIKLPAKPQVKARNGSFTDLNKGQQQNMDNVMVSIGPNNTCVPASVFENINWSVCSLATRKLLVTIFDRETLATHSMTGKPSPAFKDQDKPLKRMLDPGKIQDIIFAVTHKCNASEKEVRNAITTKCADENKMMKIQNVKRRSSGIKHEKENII
# T2: HT:F-Insv (UniProt Q8SYK5 1-376)
# T2 sequence: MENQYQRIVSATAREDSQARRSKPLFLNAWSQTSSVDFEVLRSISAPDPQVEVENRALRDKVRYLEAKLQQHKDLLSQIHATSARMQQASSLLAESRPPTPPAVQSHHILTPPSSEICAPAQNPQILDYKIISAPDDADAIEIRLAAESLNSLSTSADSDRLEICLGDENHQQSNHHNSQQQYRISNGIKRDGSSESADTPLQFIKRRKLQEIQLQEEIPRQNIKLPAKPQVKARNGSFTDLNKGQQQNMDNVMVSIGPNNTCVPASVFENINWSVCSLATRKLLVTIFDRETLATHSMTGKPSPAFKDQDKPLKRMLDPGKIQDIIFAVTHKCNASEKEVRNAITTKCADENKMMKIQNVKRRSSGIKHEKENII
# T3: GST:F-Insv (UniProt Q8SYK5 1-376)
# T3 sequence: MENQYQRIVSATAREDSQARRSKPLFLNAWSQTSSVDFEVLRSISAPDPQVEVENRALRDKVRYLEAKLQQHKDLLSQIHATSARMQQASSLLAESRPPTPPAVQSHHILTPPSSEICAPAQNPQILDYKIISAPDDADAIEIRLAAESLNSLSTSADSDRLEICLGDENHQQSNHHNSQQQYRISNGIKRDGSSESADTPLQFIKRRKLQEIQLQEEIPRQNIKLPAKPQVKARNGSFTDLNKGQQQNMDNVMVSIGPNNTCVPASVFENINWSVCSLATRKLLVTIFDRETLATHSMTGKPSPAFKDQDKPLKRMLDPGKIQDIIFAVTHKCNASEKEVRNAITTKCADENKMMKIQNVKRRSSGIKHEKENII
# T4: HS:F-Insv (UniProt Q8SYK5 1-376)
# T4 sequence: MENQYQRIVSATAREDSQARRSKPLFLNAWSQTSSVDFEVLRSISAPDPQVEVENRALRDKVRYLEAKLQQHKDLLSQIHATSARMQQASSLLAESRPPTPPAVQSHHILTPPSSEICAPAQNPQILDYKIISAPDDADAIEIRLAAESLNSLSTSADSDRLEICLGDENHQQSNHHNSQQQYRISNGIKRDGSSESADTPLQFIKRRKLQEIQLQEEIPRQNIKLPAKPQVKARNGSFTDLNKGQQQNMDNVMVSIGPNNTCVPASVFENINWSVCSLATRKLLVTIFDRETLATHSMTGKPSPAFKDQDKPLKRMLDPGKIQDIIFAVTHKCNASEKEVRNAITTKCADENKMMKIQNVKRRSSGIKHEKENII
# T5: GST:C-BEN (UniProt Q8SYK5 210-376)
# T5 sequence: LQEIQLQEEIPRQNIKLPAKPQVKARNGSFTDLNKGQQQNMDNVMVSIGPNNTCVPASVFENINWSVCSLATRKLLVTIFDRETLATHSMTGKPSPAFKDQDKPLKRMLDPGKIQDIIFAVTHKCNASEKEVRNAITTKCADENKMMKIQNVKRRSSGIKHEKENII
# T6: GST:BEN (UniProt Q8SYK5 258-356)
# T6 sequence: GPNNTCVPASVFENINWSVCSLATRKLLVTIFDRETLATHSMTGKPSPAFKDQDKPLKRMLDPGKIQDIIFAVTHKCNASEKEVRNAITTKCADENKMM
# T7: GST:N-terminal 213 aa (UniProt Q8SYK5 1-213)
# T7 sequence: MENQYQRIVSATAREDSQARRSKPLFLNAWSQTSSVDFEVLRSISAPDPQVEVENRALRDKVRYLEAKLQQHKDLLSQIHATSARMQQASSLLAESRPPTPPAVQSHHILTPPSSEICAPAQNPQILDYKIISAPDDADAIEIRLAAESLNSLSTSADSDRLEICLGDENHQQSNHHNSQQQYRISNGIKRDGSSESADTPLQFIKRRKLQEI
# How the values were obtained:
# [1] = target: the molecule itself; assay: cross-linking; glutaraldehyde, 10 min at room temperature in PBS with 1 mM beta-mercaptoethanol; protein adjusted to 10 uM; SDS-PAGE, silver staining
# [2] = target: the molecule itself; assay: SEC; Superdex 200 10/300 column; 500 uL of the eluted protein loaded; sizes estimated against Bio-Rad standards (1.35 to 670 kDa)
# [3] = target: T1, HS:C-BEN; assay: EMSA; multiple shifts, mainly tetramer/hexamer; EMSA: 25 mM Tris-HCl pH 7.4, 100 mM KCl, 1 mM EDTA, 0.1 mM DTT, 0.1 mM PMSF, 0.03 mg/mL BSA, 10% glycerol, 0.5% Triton X-100, 0.25 mg/mL poly(dI-dC), 30 min room temperature; settings: protein: recombinant; tags: N-terminal His-Sumo; chain copies: 2; label: 5'-32P; blunt
# [4] = target: T2, HT:F-Insv; assay: EMSA; multiple shifts; 0.0005-0.5 uM protein; EMSA: 25 mM Tris-HCl pH 7.4, 100 mM KCl, 1 mM EDTA, 0.1 mM DTT, 0.1 mM PMSF, 0.03 mg/mL BSA, 10% glycerol, 0.5% Triton X-100, 0.25 mg/mL poly(dI-dC), 30 min room temperature; settings: protein: recombinant; tags: N-terminal His-Thioredoxin; label: 5'-32P; blunt
# [5] = target: the molecule itself; assay: cross-linking; EGS, increasing amounts, 10 min at room temperature in PBS with 1 mM beta-mercaptoethanol; protein adjusted to 10 uM; SDS-PAGE, silver staining
# [6] = target: T2, HT:F-Insv; assay: EMSA; 0.0005-0.5 uM protein; EMSA: 25 mM Tris-HCl pH 7.4, 100 mM KCl, 1 mM EDTA, 0.1 mM DTT, 0.1 mM PMSF, 0.03 mg/mL BSA, 10% glycerol, 0.5% Triton X-100, 0.25 mg/mL poly(dI-dC), 30 min room temperature; settings: protein: recombinant; tags: N-terminal His-Thioredoxin; label: 5'-32P; blunt
# [7] = target: T1, HS:C-BEN; assay: EMSA; two shifts; slower one predominates at high protein; EMSA: 25 mM Tris-HCl pH 7.4, 100 mM KCl, 1 mM EDTA, 0.1 mM DTT, 0.1 mM PMSF, 0.03 mg/mL BSA, 10% glycerol, 0.5% Triton X-100, 0.25 mg/mL poly(dI-dC), 30 min room temperature; settings: protein: recombinant; tags: N-terminal His-Sumo; chain copies: 2; label: 5'-32P; blunt
# [8] = target: T3, GST:F-Insv; assay: EMSA; closely spaced doublet; EMSA: 25 mM Tris-HCl pH 7.4, 100 mM KCl, 1 mM EDTA, 0.1 mM DTT, 0.1 mM PMSF, 0.03 mg/mL BSA, 10% glycerol, 0.5% Triton X-100, 0.25 mg/mL poly(dI-dC), 30 min room temperature; settings: protein: recombinant; tags: N-terminal GST; label: 5'-32P; blunt
# [9] = target: T4, HS:F-Insv; assay: EMSA; gel-filtration fractions ~420-120 kDa; early aggregate fractions give no shift; EMSA: 25 mM Tris-HCl pH 7.4, 100 mM KCl, 1 mM EDTA, 0.1 mM DTT, 0.1 mM PMSF, 0.03 mg/mL BSA, 10% glycerol, 0.5% Triton X-100, 0.25 mg/mL poly(dI-dC), 30 min room temperature; settings: protein: recombinant; tags: N-terminal His-Sumo; label: 5'-32P; blunt
# [10] = target: T5, GST:C-BEN; assay: EMSA; EMSA: 25 mM Tris-HCl pH 7.4, 100 mM KCl, 1 mM EDTA, 0.1 mM DTT, 0.1 mM PMSF, 0.03 mg/mL BSA, 10% glycerol, 0.5% Triton X-100, 0.25 mg/mL poly(dI-dC), 30 min room temperature; settings: protein: recombinant; tags: N-terminal GST; chain copies: 2; label: 5'-32P; blunt
# [11] = target: T6, GST:BEN; assay: as above; settings: protein: recombinant; tags: N-terminal GST; chain copies: 2; label: 5'-32P; blunt
# [12] = target: T7, GST:N-terminal 213 aa; assay: EMSA; data not shown; EMSA: 25 mM Tris-HCl pH 7.4, 100 mM KCl, 1 mM EDTA, 0.1 mM DTT, 0.1 mM PMSF, 0.03 mg/mL BSA, 10% glycerol, 0.5% Triton X-100, 0.25 mg/mL poly(dI-dC), 30 min room temperature; settings: protein: recombinant; tags: N-terminal GST; label: 5'-32P; blunt
binder,measurement,setting,value
"HT:N1-111 (domain or fragment, Drosophila, UniProt Q8SYK5 1-111, looked up, Insensitive (Insv), Drosophila, residues 1-111: includes the predicted coiled-coil domain (about 51-104); source: E. coli, purified (Ni-NTA Agarose); not shown: His6, N-terminal, kept; Thioredoxin, N-terminal, kept) MENQYQRIVSATAREDSQARRSKPLFLNAWSQTSSVDFEVLRSISAPDPQVEVENRALRDKVRYLEAKLQQHKDLLSQIHATSARMQQASSLLAESRPPTPPAVQSHHILT",stoichiometry N,[1],4
"His-Sumo C-BEN (HS:C-BEN) (domain or fragment, Drosophila, UniProt Q8SYK5 210-376, looked up, Insensitive (Insv), Drosophila; C domain plus BEN domain; 'lacks amino acids 1-209'; elsewhere the C domain is said to extend from aa 209 to aa 253; about 32 kDa with the tag; source: E. coli, purified (Ni-NTA Agarose); not shown: His6, N-terminal, kept; Sumo, N-terminal, kept) LQEIQLQEEIPRQNIKLPAKPQVKARNGSFTDLNKGQQQNMDNVMVSIGPNNTCVPASVFENINWSVCSLATRKLLVTIFDRETLATHSMTGKPSPAFKDQDKPLKRMLDPGKIQDIIFAVTHKCNASEKEVRNAITTKCADENKMMKIQNVKRRSSGIKHEKENII",stoichiometry N,[2],2
same,stoichiometry N,[1],4
P2 (P2#7) (dsDNA) DNA 1: CTTGCGCAGGACTTTTGAGATTCTATTAAATTCTAACAAGATTTCAAGCTGTGTGGCGGGGGGAAGAGGAAGAGAGCGGAAAGTGCAGCGCCCAATAAGCAAATGGCAGCTGTCACG DNA 2: CGTGACAGCTGCCATTTGCTTATTGGGCGCTGCACTTTCCGCTCTCTTCCTCTTCCCCCCGCCACACAGCTTGAAATCTTGTTAGAATTTAATAGAATCTCAAAAGTCCTGCGCAAG,binding result,[3],binds
same,binding result,[4],binds
"HT:N1-213 (domain or fragment, Drosophila, UniProt Q8SYK5 1-213, looked up, source: E. coli, purified (Ni-NTA Agarose); not shown: His6, N-terminal, kept; Thioredoxin, N-terminal, kept) MENQYQRIVSATAREDSQARRSKPLFLNAWSQTSSVDFEVLRSISAPDPQVEVENRALRDKVRYLEAKLQQHKDLLSQIHATSARMQQASSLLAESRPPTPPAVQSHHILTPPSSEICAPAQNPQILDYKIISAPDDADAIEIRLAAESLNSLSTSADSDRLEICLGDENHQQSNHHNSQQQYRISNGIKRDGSSESADTPLQFIKRRKLQEI",stoichiometry N,[5],4
P3 (dsDNA) DNA 1: CCACCGCAAAATCCAATTGGAAGAGAGCGACT DNA 2: AGTCGCTCTCTTCCAATTGGATTTTGCGGTGG,binding result,[6],binds
same,binding result,[7],binds
same,binding result,[8],binds
same,binding result,[9],binds
same,binding result,[10],binds
same,binding result,[11],binds
same,binding result,[12],no binding
